{
  "source": "the DeepSol protein solubility set",
  "data": [
    {"assay": "soluble on expression in E. coli; label from the status in PepcDB or PDB records", "values": [
      {"sequence": "MGSDKIHHHHHHMSLSRIHGDDDAFGARLDFAVNVAEAQPPTWLIQRLQSAVTDLAAYPHSSDLAAVTAMIARYHGVSEDHVLVLSGVSEGFAMLPQLKPENAVIIHPGFSEPDIVLTDAQIPVHRCILAPPFELSFENIPANADLVVIGNPTNPTGVVHSKELLAQLCAPGRTVVIDEAFLDIVGEQYSMIDQLDAVEGELIIFRSLTKTWSIAGLRVGYAIARPETLARLSAYRRHWPMGTLQLRAIEAVFDTGIMQLPERRAEMIAQRTEMIEMLTNSGFRCVSSSQAPYILVRPPSTQPEELRMALKAQGIAVRRCDTFPGLEFSYWRLAVRPRDQVQRLLTAIDNIIGAKK", "soluble on expression in E. coli": "not soluble"},
      {"sequence": "MSLRAGVTGGPQIITKVITMIKFVLDTSIFVNPDVRKKFGETPTEAMKTFLHYAENLFGKVEFYMPPGIYRELMHFVEEEEVSPDIELYIIKKPPNVHDIKIPAFVVYELIEDIRRRVDKGLRVAEKAVRESVIDTSNVDKIIQKLRRNYRKALREGILDSKEDFELILLAKEIDGIIVSADVGILTWAEKMGIKWVDAFKFKEVLSELVEKFKRSESEKERKEGHHHHHH", "soluble on expression in E. coli": "not soluble"},
      {"sequence": "AGWQSYVDNLMCDGCCQEAAIVGYCDAKYVWAATAGGVFQSITPIEIDMIVGKDREGFFTNGLTLGAKKCSVIRDSLYVDGDCTMDIRTKSQGGEPTYNVAVGRAGRALVIVMGKEGVHGGTLNKKAYELALYLRRSDV", "soluble on expression in E. coli": "soluble"},
      {"sequence": "MQDLSAVKAFHALCQHKSLTAAAKALEQPKSTLSRRLAQLEEDLGQSLLMRQGNRLTLTKAGEVFAVYSEQLLELANKSQEALQELNNQVTGELTLVVHPNLIRGWLSQVLDEFMQQHSTLKIRLLSQFQHSDEVFEPDLIIWIEHAAPMGYRKERLGYWRYAAYASPKYLAHRDKPTHPRELIHHPWIDFIACRRAELELHHPEFGSYSLPALESRLQSDNLAMQADAIAKGRGIGLLPTWFANGFETAHPGSLIPCVNGWQSQPTEINCFYPLGRHPLRLRLFIDALRQARPDEWQ", "soluble on expression in E. coli": "not soluble"},
      {"sequence": "IKDFNYRIGFNLYDSQSEITKFNNETNLLGTYRKGQKIGEIWGYVTDRFYREDDFNADGTLKEGIPIPKGVGKVYPGDILYKNFDDDASTIWSGKGTADDPGDQRIIGNSTPRFHYGINAGLSWKGFDLSVFLRGVGKRDFWRTDQIAWPTGTWGSLFKETLDFWTPEHTDAYFPRVYANNGVNTASNRWKQTKYLANAAYLKLQNITLSYTLPKTWAKQICFDEVKVFFSGENLHTWDHLPEGLESDMLSKGAWEYPFMKKFSLGFNVTF", "soluble on expression in E. coli": "not soluble"},
      {"sequence": "MPQFTTARRARHRAEQMFALVADVEKYPQFLPMCEALSIRSRKERDGKTLLIADMTVGYKLIRETFTSQVLLKPDENIIDVKYIDGPFRYLDNRWTFRPTDGGAQCDVEFFIDYEFKSRTLGLLMGTMFDLAFKKFSEAFEKRADQIYGLGELEHHHHHH", "soluble on expression in E. coli": "soluble"},
      {"sequence": "MLIREIEKKDNEQVETLIRTCLIEFGADKPGCAWTDPDLGRFYEIYQDKKSKYWVVEEEGKIIAGCGIGPLNGAENVCELQKMYSYKEARGTGIAKDLLGLALDFAKKYYDKCYLETFSNMTAANKFYVKNGFKKLEKPLIETDHYACDVWYIKEL", "soluble on expression in E. coli": "not soluble"},
      {"sequence": "MAHHHHHHMPLIEAHLPALRPYIRYPVVAATGSFDVGRLQQYATVCPATYVIETITEALAELTRRMKWSFDLCGNFRDAADFAARGISFVALERATGNIAAGASSFCICDGGVEVGVETAESHQRRGLALACSARLILERLKHGLYPNWDAHVPHSAHLAEKLGYTRGTPYKAYVDELQT", "soluble on expression in E. coli": "not soluble"},
      {"sequence": "MGSDKIHHHHHHMYVDEIHVEKCGPLSVGVYGGNQESDAYERGDAVLAWWDPELQFEFVMIFDTHHKTKNIDYIIEAISERKEKLKELFSYPIHLAFHHTHMYLLALFTDELFIEKCDQDDEELACLICLRKGEFLYWLSVGDCFAYLFHSEKTKNGKGRLNKRKNYEYIGRKNIFAANTPCFTSGVRGLEKGMNHIVMATDGILECDKRRFDDDQSLIEILHDGSCLQIEPVLTNVLQWKGRDCATIIGWSIDTENKRCAN", "soluble on expression in E. coli": "not soluble"},
      {"sequence": "MLEQILLGTYTRRASQGIYKIALDTTQGRLTEATLLLEETSPTYLALSQKGELFSVTSVDGEGGTAAYQPEMDHFNLLNKVTEEGAPPCYVAVDENRQLVYAANYHQGIVHVYRILEDGSLEDADKVIHTEPTGPHENQNNAHVHYTDLTPDQRLVVCDLGTDRVYTYNVSLDGKLSEIAQFVTEPGTGPRHLVFHPTKSLAYLFGELDSTVSVLSYDETDGSFTELQKVSTLPADYDAFNGGAAIRISSDGRFLYASNRGHNSIAVYAVSENGEAIERIQLISTEGDIPRDFDLDPSEDFIVVANQDSDNLTLYRRNQETGLLEMIQKDVAVPECVCVLFVLEHHHHHH", "soluble on expression in E. coli": "soluble"},
      {"sequence": "MSATVKPYQEMESGKREQVELMFNNISPKYDLLNRVLSLGIDKIWRKQALNLLKQDKPAHILDVATGTADLAIEAATRLKPTSVVGIDIAEDMLQIGRGKIAKKNLDKIIRLEKGDSEKINFPDNTFDAVIVSFGVRNFEHLEIGLAEIHRVLKPAGSIMVLEFSKPQNAPFKQVYQFYFKNILPTVGKLISKDSAAYTYLPDSVNAFPDGKAFCSILEKTGFTIKHYKPYTFGVCTAYVGKKLEHHHHHH", "soluble on expression in E. coli": "not soluble"},
      {"sequence": "MTAAEHGLHAPAYAWSHNGPFETFDHASIRRGYQVYREVCAACHSLDRVAWRTLVGVSHTNEEVRNMAEEFEYDDEPDEQGNPKKRPGKLSDYIPGPYPNEQAARAANQGALPPDLSLIVKARHGGCDYIFSLLTGYPDEPPAGVALPPGSNYNPYFPGGSIAMARVLFDDMVEYEDGTPATTSQMAKDVTTFLNWCAEPEHDERKRLGLKTVIILSSLYLLSIWVKKFKWAGIKTRKFVFNPPKPRK", "soluble on expression in E. coli": "soluble"},
      {"sequence": "MSNTQKKNVPELRFPGFEGEWEEKKLGNLTTKIGSGKTPKGGSENYTNKGIPFLRSQNIRNGKLNLNDLVYISKDIDDEMKNSRTYYGDVLLNITGASIGRTAINSIVETHANLNQHVCIIRLKKEYYYNFFGQYLLSRKGKRKIFLAQSGGSREGLNFKEIANLKIFTPTIFEEQQKIGKFFSKLDRQIELEEQKLELLQQQKKGYMQKIFTQELRFKDENGEEYPEWENKFIKDIFIFENNRRKPITSSLREKGLYPYYGATGIIDYVKDYLFNNEERLLIGEDGAKWGQFETSSFIANGQYWVNNHAHVVKSNDHNLFFMNYYLNFKELRAFVTGNAPAKLTHANLCNINLKIPCLTEQDKVSALLKSIDNKMNNQMNRIELLKERKKGLLQKMFI", "soluble on expression in E. coli": "not soluble"},
      {"sequence": "MSLTWFDLVTPKSVMFFKPFIEELKRRDREVLVTAREGEGYSEVVELLNLYKIPFFNRGGFGGAKLCDKLKASIHRQLELMEFIEQHSIKRLVCLCSVDANRVAFGLGIPIVNFYDIPLSDYKTDFRRALPQARLTLPLSNKAFRPFMVPEEIFFRFGLEHDQIFEYGFLDVVAWLRDFQPSREFYEKVLKDYGLDTSLPTIVVREEEYKASYVMKKYPILYEGLKVLKERLRANILVIPRYEPEAVAELLPFAKVLKEKIVIQHILAYCDLFIGGGGTLNSEACFFGTPTISTRSFVSHYDKFLMDLALMDKVDSIEELIIKAERIIGNRNGYAKQIFDRMEFDVGSMVDEILKEKEGAEGHHHHHH", "soluble on expression in E. coli": "soluble"},
      {"sequence": "MDVEVKNKANRRHVGHNLQKIRVYFGMKQEALAADLGVNQQVISKIEKQEEIEEGLLNQIASVLGISAEVIKDFDVEKAIYNINNIRDNTFEQGATSIAQQFNPLDKIVELYERLLQSEREKIELLKKR", "soluble on expression in E. coli": "not soluble"},
      {"sequence": "MSGRKIAAATVQNRTQTPFWNWLKQKLLASDRLPITPPPGIAGPDGKAVYQNPLRFPNTQSARPCSAELPALPGGVHHKLADNYYLTRDGRRNVDAPKVLYSSGEFVGGEKAQPAQVNQGVATNFGLTAPTPGFGAEWSRSKQNELASQQKNTEFEYLQRFDKFTKSA", "soluble on expression in E. coli": "not soluble"},
      {"sequence": "MSEIGTGFPFDPHYVEVLGERMHYVDVGPRDGTPVLFLHGNPTSSYLWRNIIPHVAPSHRCIAPDLIGMGKSDKPDLDYFFDDHVRYLDAFIEALGLEEVVLVIHDWGSALGFHWAKRNPERVKGIACMEFIRPIPTWDEFHHTEVAEEQDHAEAARETFQAFRTADVGRELIIDQNAFIERVLPGGVVRPLTEVEMDHYREPFLKPVDREPLWRFPNELPIAGEPANIVALVEAYMNWLHQSPVPKLLFWGTPGALIPPAEAARLAESLPNCKTVDIGPGLHYLQEDNPDLIGSEIARWLPAL", "soluble on expression in E. coli": "soluble"},
      {"sequence": "MGSDKIHHHHHHVTSDLDFHLFCPKGALSDLVQGIWSVSRPAEADELHAWLHSDAASGLLINLGAPLGYDEQEVPAGVYLLPVNKQTTRVTLPPGALAVGVRFLPGAGRAWMMERFAFEQGREAITPLTYHAELMALAASLRACRGHRQRLSLTYRWLRANQTLNQPLPRVINEVLQALDRPDADMTAFENGVMSQRQIERYFRRYLEMTPKYYQRLMRARQTLQALKLSPLAPLADIALELGFADQAHMTRELKQLIKITPKRYRQLLTQGAG", "soluble on expression in E. coli": "not soluble"},
      {"sequence": "SEDEWQCTECKKFNSPSKRYCFRCWALRKDWYSDCSKLTH", "soluble on expression in E. coli": "soluble"},
      {"sequence": "RTGRELLDMCRASGHSVAGLMMRNELTWRGAAEIEQGLDRIWEVMQECVARGCGIGHPEADGDLPGPLKVRRRAPELYRALTQRAERTLSDPLSVMDWVNLYAMAVNEENAAGGRVVTAPTNGAAGIIPAVLHYYDRFVPAANRAGVHDFLLTAAAIGLLYKYNASLSGAEVGCQGEVGVACSMAAGALAAVQGGSVEQVENAAEIGMEHNLGLTCDPVGGLVQIPCIERNAMASVKAVNAARMALRGDGHHYVSLDSVIKTMRETGADMKTKYKETARGGLAVN", "soluble on expression in E. coli": "not soluble"},
      {"sequence": "MDGFGSHPRTLAVDQWMDIVNGKGYGVGGTTQVYSTRPDSPKFQPSIPPPPGSTSKTRTTATPWRLIDAETKRKKRIATYKTYALEGKVKSTVKKGFHWIKDRYSHIIHG", "soluble on expression in E. coli": "soluble"},
      {"sequence": "MGSDKIHHHHHHMNTITPISTRRVTLALQGGGSHGAFTWGVLDRLLEEPRLRIEAVSGTSAGAMNAACLAHGLADSGRQGARDTLERFWTAISNAAAFSPIRRSPLAIWLGNWSVADSMGYLMSTAFGRALSPYQSNPLNINPLRETVERIIDFDAVRACRDLSLFVTATNVHTGRPRIFTREDLSVDAVLASACLPHLFQAVEIDGVPYWDGGYVGNPALWPLIYETDVRDLLLVRINPLIREQTPMTGLEIADRLNEITFNASMFREMRAIAFVGRMLDEGSLDPERYKRMLIHAIEAEDDLKSLGASSKLNAELPFLFHLRDIGRRAADDWLTKNLEKIGYESTVDVASAYL", "soluble on expression in E. coli": "not soluble"},
      {"sequence": "MTAHLAAINGLRLKAECSNCGVRELCLSVGMSLTDTDRLSAIIPQPIKVKKGAALYHAGDPLQSLYAVRFGFFKTTISSQDGRDQLTGFQMSGELLGCDAISNDCHVCDAIALEDSEVCPIRFTHLERLSREMPSLQHNLNRALSKEIVRDHEMLLLLGNLNAEERMAAFLLNLSGRMFNRGYSATAFVLRMTREDIGSYLGLRLETICRAIANLRNLRIVSISGRQVEILDLNRLQALIHGCSYRAKSL", "soluble on expression in E. coli": "not soluble"},
      {"sequence": "MVLVVGSGAGGATLARELAIRGIDVTVIERGPCVKDSDAFLCYDEAPDVDILRTSCAGGSTLVAAGNAVRVLENTLKDYGVDITEDLHAIEAELRVRELPDTHTGRGTALIMDAAESLGLGVKKMPKFIDPDKCRPCGKCSFGCPRAAKWSARRFLDEAVEHGAVLIEETEAKNIIVRNGSVSGLRTSRGDFHDETVVLAAGAIETPRILMRAGIDAGNGLFMDTFVTVGGILEGVGFCDEVQMNALIELDGVILSPHFSTLLFPEDDRRNVLGIMVKIADERSGRVEADRIVKHHTVRDISLLSGGAAIAGSILSRAGVGAGTLRSTRPRGAHPGGTASLGEVVDENLETSIEGLFVADASVLPAAPGAPPILTIMALARRLARHIVSVLLEHHHHHH", "soluble on expression in E. coli": "not soluble"},
      {"sequence": "VSQLFEEKAKAVNELPTKPSTDELLELYALYKQATVGDNDKEKPGIFNMKDRYKWEAWENLKGKSQEDAEKEYIALVDQLIAKYSS", "soluble on expression in E. coli": "soluble"}
    ]}
  ]
}
